Reference: patent publication US20100159560

Key:
[1] = biological target: insulin B
[2] = biological target: T1, protransglutaminase of Streptoverticillium mobaraense IFO13819 (pro-MTG), P81453
T1 chain: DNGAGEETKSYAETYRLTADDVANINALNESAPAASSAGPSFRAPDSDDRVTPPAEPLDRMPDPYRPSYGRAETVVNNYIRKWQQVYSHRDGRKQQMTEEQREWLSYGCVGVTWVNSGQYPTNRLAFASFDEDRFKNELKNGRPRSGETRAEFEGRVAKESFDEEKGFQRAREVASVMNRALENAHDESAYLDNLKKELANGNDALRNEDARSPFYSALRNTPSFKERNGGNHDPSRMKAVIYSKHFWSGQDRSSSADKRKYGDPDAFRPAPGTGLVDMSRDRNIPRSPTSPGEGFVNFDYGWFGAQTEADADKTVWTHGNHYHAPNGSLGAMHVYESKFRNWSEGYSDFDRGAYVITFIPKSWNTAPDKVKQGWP

[3] = biological target: T2, Streptomyces subtilisin inhibitor (SSI) derived from actinomycetes, P01006
T2 chain: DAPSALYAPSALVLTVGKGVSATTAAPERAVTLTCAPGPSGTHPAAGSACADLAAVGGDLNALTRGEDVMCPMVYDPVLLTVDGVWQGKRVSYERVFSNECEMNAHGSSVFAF

[4] = biological target: T3, synthetic peptide Gly-Pro-Ser-Phe-Arg-Ala-Pro-Asp-Ser
T3 chain: GPSFRAPDS

B1: neutral metalloprotease SVP35 from Streptoverticillium mobaraense IFO13819 (protein)
chain: GTGTSTYSGTVPLTTTKSGSQYQLNDGARGGHKTYDLNQGTSGTGSLFTNSTDTWGGGRQTAGVDAHYGAAVTWDFYKNVFGRNGIRNDGKAAYSRVHYGNSYVNAFWSDSCFCMTYGDGQNNKNPLTALDVAAHEMSHGVTAATAKLVYSGESGGLNEATSDIFGTAVEFYANNKTDVGDYLIGEKINIYGDGKPLRYMDKPSKDGKSKDSWYSGIGGVDVHYSSGPANHFFYLLSEGSGKKTINGVDYDSPTADGSKVTGIGRDKAQKIWYKALTTQFTSNTNYAKARTGTLNAAASLYGNNSAEYKAVAAAWSAINVK
In the case of B1, the “cleavage points (HPLC separation and sequencing of peptide fragments)” value [1] is reported as “cleaved before (at the N-terminal of) especially Phe, often Leu, sometimes Tyr, Trp, Ile, Val”, the “cleavage points (HPLC separation and sequencing of peptide fragments)” value [2] is reported as “cleaved before (at the N-terminal of) especially Phe, often Leu, sometimes Tyr, Trp, Ile, Val” and the “conversion of pro-MTG to mature MTG (SDS-PAGE time course; TG activity by the hydroxamate method), substrate:enzyme = 200:1” value [2] is reported as “pro-MTGs were converted to the mature forms, and the produced MTGs were not reduced even after a long-term reaction”. For the same protein, the “relative activity (Gly-Pro-Ser-Phe-Arg-Ala-Pro-Asp-Ser cleavage activity, absence of compounds = 100%)” value [3] was “strongly inhibited” and the “cleavage activity on the peptide substrate (HPLC, decrease of substrate)” value [4] was “SVP35 was allowed to act on Gly-Pro-Ser-Phe-Arg-Ala-Pro-Asp-Ser (SEQ ID NO: 11) as a substrate”.
